From patent publication US20110207628A1 (UNIVERSITY OF MIAMI, published 2011)

Molecular target: T1, GST-tubby-F (GST fused to full-length mouse tubby) (Schistosoma japonicum; mouse, UniProt P50586 1-505)
T1 construct: mature; Expressed in E. coli BL21(DE3) from pGEX-2T; not shown: glutathione S-transferase of pGEX-2T (Schistosoma japonicum)
T1 sequence (looked up): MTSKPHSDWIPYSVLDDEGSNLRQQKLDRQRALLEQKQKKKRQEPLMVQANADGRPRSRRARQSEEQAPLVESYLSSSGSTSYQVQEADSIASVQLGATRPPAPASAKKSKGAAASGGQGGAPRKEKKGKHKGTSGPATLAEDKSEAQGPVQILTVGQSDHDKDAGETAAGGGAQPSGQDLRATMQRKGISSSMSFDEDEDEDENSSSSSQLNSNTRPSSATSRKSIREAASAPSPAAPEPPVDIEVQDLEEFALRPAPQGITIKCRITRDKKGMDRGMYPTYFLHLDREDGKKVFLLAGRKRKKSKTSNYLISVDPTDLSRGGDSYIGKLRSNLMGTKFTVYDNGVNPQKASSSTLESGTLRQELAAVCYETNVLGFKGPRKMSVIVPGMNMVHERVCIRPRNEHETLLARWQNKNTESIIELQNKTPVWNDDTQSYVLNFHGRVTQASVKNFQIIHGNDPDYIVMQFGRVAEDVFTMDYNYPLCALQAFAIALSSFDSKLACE
Test: GST pull-down: GST-tubby with lysate of cells expressing the FLAG-tagged protein, glutathione resin, Western blot with anti-FLAG mAb

- binding result: no binding
B1: FLAG-tagged Tulp3 (full-length mouse Tulp3 with N-terminal FLAG tag) (other)
chain: DYKDDDDKMEAARCAPGPRGDSAFDDETLRLRQLKLDNQRALLEKKQRKKRLEPLMVQPNPEARLRRLKPRGSEEHTPLVDPQMPRSDVILHGIDGPAAFLKPEAQDLESKPQVLSVGSPAPEEGTEGSADGESPEETAPKPDLQEILQKHGILSSVNYDEEPDKEEDEGGNLSSPSARSEESAAASQKAASETGASGVTAQQGDAQLGEVENLEDFAYSPAPRGVTVKCKVTRDKKGMDRGLFPTYYMHLEREENRKIFLLAGRKRKKSKTSNYLVSTDPTDLSREGESYIGKLRSNLMGTKFTVYDHGVNPVKAQGLVEKAHTRQELAAICYETNVLGFKGPRKMSVIIPGMNMNHERIPFRPRNEHESLLSKWQNKSMENLIELHNKAPVWNDDTQSYVLNFHGRVTQASVKNFQIVHGNDPDYIVMQFGRVADDVFTLDYNYPLCALQAFAIGLSSFDSKLACE
notes: mature; Expressed from pcDNA3 in Neuro-2a cells; used as cell lysate or on membrane vesicles
